Measurements reported in paper PMC10264073, “Biological condensates form percolated networks with molecular motion properties distinctly different from dilute solutions” (eLife, 2023).

What was measured:
MBP-His6-GCN4-Dimer = experiment: SEC-MALS; FPLC coupled with static light scattering; Superose 12 10/300 GL; 50 mM Tris pH 8.2, 100 mM NaCl, 1 mM EDTA, 2 mM DTT; loading concentration not shown
[1] = biological target: the molecule itself; experiment: SEC-MALS; FPLC coupled with static light scattering; Superose 12 10/300 GL; 50 mM Tris pH 8.2, 100 mM NaCl, 1 mM EDTA, 2 mM DTT; loading concentrations 30 μM and 150 μM

| stoichiometry N (MBP-His6-GCN4-Dimer) | Molecule | binding result [1] |
| --- | --- | --- |
| 2 | MBP-His6-GCN4-Dimer |  |
|  | PrLD-SAMWT fusion protein (FUS PrLD fused to the Shank3 SAM domain; MBP-PrLD-SAMWT-GB1) (other, UniProt P56959 1-212, looked up, FUS prion-like domain (PrLD), UniProt P56959, segment 1-212; SAM domain of Shank3 (aa 1654-1730), UniProt Q4ACU6, fused to the C-terminal end of PrLD; The light-scattering legend calls it only 'PrLD-SAMWT fusion protein (theoretical MW 80.7 kDa)'; also called PrLD-SAM chimera; source: E. coli BL21 (DE3), purified (Ni2+-NTA, size-exclusion chromatography); not shown: MBP, N-terminal, kept; GB1, …) CMASNDYTQQATQSYGAYPTQPGQGYSQQSSQPYGQQSYSGYGQSADTSGYGQSSYGSSYGQTQNTGYGTQSAPQGYGSTGGYGSSQSSQSSYGQQSSYPGYGQQPAPSSTSGSYGGSSQSSSYGQPQSGGYGQQSGYGGQQQSYGQQQSSYNPPQGYGQQNQYNSSSGGGGGGGGGNYGQDQSSMSGGGGGGGYGNQDQSGGGGGGYGGGQQGPRRPFQQKPLQLWSKFDVGDWLESIHLGEHRDRFEDHEIEGAHLPALTKEDFVELGVTRVGHRMNIERALRQLDGS | binds |
